Here are results for 1 molecule from paper PMC8764033, “Single-molecule analysis of specificity and multivalency in binding of short linear substrate motifs to the APC/C” (Nature Communications, 2022).

The experiment has as its system APC/C^Cdh1. Briefly: Ensemble binding of radiolabeled Hsl1 fragments to APC/C^Cdh1 on magnetic beads. Set-up: species or system yeast. From the text:
Supplementary Fig. 2: APC/C activity with tagged substrates a, Methods for analysis of APC/C activity and substrate binding. b, APC/C ubiquitylation assay with ra d io lab e le d f u ll-len g th yS e cu rin , co mpa rin g wild-type APC/CCdh1 an d AP C/ CCdh1 with a GFP ta g o n A p c1 . c, Comparison of activities with APC/CCdh1, using either wild-type Cdh1 or Cdh1 with the N-terminal 2XStrep-Tag II. d, Comparison of activities with APC/CCdh1 and the Hsl1 fragment (667-872) with and without the C-terminal Halo tag. e, Binding of radiolabeled Hsl1 fragments to yeast APC/CCdh1 immobilized on magnetic beads. First lane (Inp, input) indicates the amount of labeled protein added to the beads prior to washing, second lane (+) indicates amount bound, and third lane (-) indicates background binding in absence of APC/CCdh1. f, Ubiquitylation of Halo-tagged Hsl1 fragment with APC/CCdh1 an d A P C/ CCdc20. Experiments we re pe rfo rme d o n ce (b, c) or twice ( d-f). Source data are provided as a Source Dat a file.
(1 picture or pasted object on this page, not shown here)

B1: Hsl1^Halo KEN & D: Hsl1 fragment (amino acids 667–872) with C-terminal HaloTag, JF549-labeled (protein)
chain: QNSASKRSLYSLQSISKRSLNLNDLLVFDDPLPSKKPASENVNKSEPHSLESDSDFEILCDQILFGNALDRILEEEEDNEKERDTQRQRQNDTKSSADTFTISGVSTNKENEGPEYPTKIEKNQFNMSYKPSENMSGLSSFPIFEKENTLSSSYLEEQKPKRAALSDITNSFNKMNKQEGMRIEKKIQREQLQKKNDRPSPLKPIQ
modifications: JF549 or JF646 dye covalently bound to the HaloTag; left off: HaloTag, C-terminal, kept | TAP, C-terminal, cleaved
notes: Hsl1 fragment (amino acids 667–872) with C-terminal HaloTag, JF549-labeled
Regarding B1, the “binding to APC/C (in words)” value is recorded as “HaloTag does not affect ubiquitylation or binding”.
